{
  "source": "paper PMC10384657",
  "target": "MPER25c (spike S2 membrane proximal region peptide) MPER (Severe acute respiratory syndrome coronavirus 2), P0DTC2",
  "assay": "SPR",
  "settings": "modification not given",
  "data": [
    {"binder": "FGAGAALQIPFAMQMAYRF", "note": "[PN19 (spike S2 internal fusion peptide)]", "values": [
      {"measurement": "Kd", "value": 9.44, "unit": "nM"}
    ]}
  ]
}
